Measured values reported in patent publication US20250027068.

How the values were obtained:
[1] = biological target: pooled human IgG (human IgG1,2,3 and 4)

Protein	Enzyme Activity Endpoint Assay: Fab′2 [1] [ng/µL]	Enzyme Activity Endpoint Assay: Fc [1] [ng/µL]	Enzyme Activity Endpoint Assay: IgG [1] [ng/µL]	Enzyme Activity Endpoint Assay: scIgG [1] [ng/µL]	Enzyme Activity Endpoint Assay (purified): Fab'2 (pooled human IgG) [ng/µL]	Enzyme Activity Endpoint Assay (purified): Fc (pooled human IgG) [ng/µL]	Enzyme Activity Endpoint Assay (purified): IgG (pooled human IgG) [ng/µL]	Enzyme Activity Endpoint Assay (purified): scIgG (pooled human IgG) [ng/µL]
PRT-283 (protein) MVTSVWTKGVTPPAKFTQGEDVFHAPYDANQGWYDITKTFNGKDDLLCGAATAGNMLHWWFDQNKEKIEAYLKKHPDKQKIMFGDQELLDVRKVINTKGDQTNSELFNYFRDKAFPNLSARRIGVMPDLVLDMFINGYYLNVYKTQTTDVNRTYQEKDRRGGIFDAVFTRGDQSKLLTSRHDFKEKNLKEISDLIKKELTEGKALGLSHTYANVRISHVINLWGADFDSNGNLKAIYVTDSDSNASIGMKKYFVGVNSAGKVAISAKEIKEDNIGAQVLGLFTLSTGQDSWNQTN	380	271	186	91				
PRT-240 (protein) MEVVEVWPYGQNPNGKTEILSQTEDSESLQRLRDIEDFQAEKKMQNVVYTKWLDGVDVKDHDFRKIVDGDYAYYATPLLNGRGFYDINKDFNRDSDKCAAAVAANMFHYWLDINRDNVDRFLRQNPEKHGIIELPDGQLKLSDFLNTYESDHGYRDKSKLFDFISNAFNGPVWADKLLDNYINGYGYNKKYGRTIEDPTKNTSKFNFFKEVFNEKILTNNHQIRNQNEFSVLLSEALYTGKAIGLAYGPGGLRHSLGHIISVWGADLDADGNVVAIYVTDSDDKKLTIGDERVGLKRYKISTDDNNRLRLTTYEETHNTGAQIRGLETLDTGKYAWADYFDKTEQTGTDQAEQLEHHHHHH					0	82	1400	36
PRT-251 (protein) MVTSVWTKGVTPPTNFTYGEDVLHAPYVANQGWYDITKTFNGKDDLLCGAATAGNMLHWWFDQNKEQIENYLKKHPEKQKINFNGEQMFDVKEAIDTKDSQLDSKLFEYFLEKAFPNLSTKHLGVFPDHVIDMFINGYRLSLLNHGPTPVKRGSKDPRGGIFDAVFTRGDQSKLLTNRHDFKEKTLKEISDLIKQELTEGKALGISHTYANVRINHVINLWGADFDAEGNLEAIAVTDSDSNASIGMKKYFVGVNSSGKVAISAKEIEEDNIGAQVLGLFTLSTGQDIWNQTN	1070	444	0	0				
PRT-267 (protein) MVTSVWTKGVTPPTDFIYGEDVLHAPYKAGQGWYDITKTFNGKDDLLCGAATAGNMLHWWFDQNKEQIENYLKKHPEKQKINFNGEQMFDVKEAIDTKDSQLDSKLFDYFKEKAFPNLSTKHLGVFPDHVIDMFINGYRLSLLNHGPTPVKRGSKDPRGGIFDAVFTRGDQSKLLTNRHDLKNKTLKEISDLIKQELTEGKALGISHTYANVRINHVINLWGADFDAEGNLEAIYVTDSDSNPSIGMKKYFVGVNSSGKVAISAKEIEEDNIGAQVLGLFTLSTGQDIWNQTN	1090	438	0	0				
PRT-259 (protein) MVTSVWTKGVTPPTNFTYGEDVLHAPYVANQGWYDITKTFNGKDNLLCGAATAGNMLHWWFDQNKEQIENYLKKHPEKQKINFNGEQLFDVKEAIDTKDSQLDSKLFEYFKEKAFPNLSTKHLGVFPDHVIDMFINGYRLSLLNHGPTPVKRGSKDKRGGIFDAVFTRGVQSKLLTNRHDFKEKTLKEISDLIKQELTEGKALGISHTYANVRINHVINLWGADFDAEGNLEAIYVTDSDTNASIGMKKYFVGVNSSGKVAISAKEIEEDNIGAQVLGLFTLSTGQDIWNQTN	1100	453	0	0				
PRT-275 (protein) MVTSVWTKGVTPPTDFIYGEDVLHAPYKAGQGWYDITKLFNGKDNLLCGAATAGNMLHWWFDQNKEQIENYLKKHPEKQKIIFNNQELFDLKAAIDTKDSQLDSKLFDYFKEKAFPNLSTKHLGVFPDHVIDMFINGYRLSLLNHGPTPVKRGSKDKRGGIFDAVFTRGVQSKLLTNRHDLKNKTLKEISDLIKQELTEGKALGISHTYANGRINHVINLWGADFDAEGNLEAIYVTDSDTNPSIGMKKYFVGVNSSGKVAISAKEIEEDNIGAQVLGLFTLSTGQDIWNQTN	169	257	97	589				
PRT-243 (protein) MVTSVWTKGVTPPANFTQGEDVFHAPYVANQGWYDITKLFNGKDDLLCGAATAGNMLHWWFDQNKDQIKRYLEEHPEKQKINFNGEQMFDVKEAIDTKNHQLDSKLFDYFKEKAFPNLSTKHLGVFPDHVIDMFINGYRLSLLNHGPTPVKEGSKDPRGGIFDAVFTRGDQSKLLTSRHDFKEKNLKEISDLIKKELTEGKALGLSHTYANGRINHVINLWGADFDSNGNLKAIYVTDSDSNPSIGMKKYFVGVNSSGKVAISAKEIKEDNIGAQVLGLFTLSTGQDSWNQTN	967	430	25	0				
PRT-241 (protein) MVTSVWTKGVTPPANFTQGEDVFHAPYVANQGWYDITKTFNGKDDLLCGAATAGNMLHWWFDQNKDQIKRYLEEHPEKQKINFNGEQMFDVKEAIDTKNHQLDSKLFEYFKEKAFPNLSTKHLGVFPDHVIDMFINGYRLSLLNHGPTPVKEGSKDPRGGIFDAVFTRGDQSKLLTSRHDFKEKNLKEISDLIKKELTEGKALGLSHTYANVRINHVINLWGADFDSNGNLKAIYVTDSDSNASIGMKKYFVGVNSSGKVAISAKEIKEDNIGAQVLGLFTLSTGQDSWNQTN					731	406	0	0
IdeZ2 (protein) EVVEVWPYGQNPNGKTEILSQTEDSESLQRLRDIEDFQAEKKMQNVVYTKWLDGVDVKDHDFRKIVDGNIAYYATPLLNGRGFYDINKDFNRDSDKCAAAVAANMFHYWLDINRDNVDRFLRQNPEKHGIIELPDGQLKLSDFLNTYESDHGYRDKSKLFDFISNNFNGPVWTDKLLDNYINGYAYNYKYGRTIEDPTKNTSKINFFKEVFNEKILTNNHSIRNQNEFSVLLSEALYTGKAIGLSYGPAGLRHSLGHIISVWGADLDADGNVVAIYVTDSDDKKLTIGDERVGLKRYKISTDDENRLRLTAYEETHNTGGQIRGLWTLDTGKYAWADYFDKTEQTGTDQAEQ					1340	566	0	0
IdeS (protein) ANQEIRYSEVTPYHVTSVWTKGVTPPANFTQGEDVFHAPYVANQGWYDITKTFNGKDDLLCGAATAGNMLHWWFDQNKDQIKRYLEEHPEKQKINFNGEQMFDVKEAIDTKNHQLDSKLFEYFKEKAFPYLSTKHLGVFPDHVIDMFINGYRLSLTNHGPTPVKEGSKDPRGGIFDAVFTRGDQSKLLTSRHDFKEKNLKEISDLIKKELTEGKALGLSHTYANVRINHVINLWGADFDSNGNLKAIYVTDSDSNASIGMKKYFVGVNSAGKVAISAKEIKEDNIGAQVLGLFTLSTGQDSWNQTN					1360	524	0	0
IdeZ (protein) DDYQRNATEAYAKEVPHQITSVWTKGVTPLTPEQFRYNNEDVIHAPYLAHQGWYDITKAFDGKDNLLCGAATAGNMLHWWFDQNKTEIEAYLSKHPEKQKIIFNNQELFDLKAAIDTKDSQTNSQLFNYFRDKAFPNLSARQLGVMPDLVLDMFINGYYLNVFKTQSTDVNRPYQDKDKRGGIFDAVFTRGDQTTLLTARHDLKNKGLNDISTIIKQELTEGRALALSHTYANVSISHVINLWGADFNAEGNLEAIYVTDSDANASIGMKKYFVGINAHGHVAISAKKIEGENIGAQVLGLFTLSSGKDIWQKLS					1290	481	0	0
PRT-291 (protein) MVTSVWTKGVTPPADFTQGEDVFHAPYVANQGWYDITKTFNGKDDLLCGAATAGNMLHWWFDQNKEYIEAYLKKHPEKQKIMFGDQELLDVRKAINTKGSQKNSELFNYFRDKAFPNLSARRLGVMPDLVLDMFINGYYLNVTKTQTTDVNRTYQEKDKRGGIFDAVFTRGDQSKLLTSRHDFKEKGLKEISDLIKQELTEGKALGLSHTYANVRLNHVINLWGADFDSDGNLKAIYVTDSDSNASIGMKKYFVGVNSSGKVAISAKEIKEDNIGAQVLGLFTLSTGQDIWNQTN	1020	420	0	0				
PRT-299 (protein) MVTSVWTKGVTPPTDFIKGEDVFHAPYKAGQGWYDITKTFNGKDDLLCGAATAGNMLHWWFDQNKEYIEAYLKKHPEKQKIMFGDQELLDVRKAINTKGSQKNSELFNYFRDKAFPNLSARRLGVMPDLVLDMFINGYYLNVTKTQTTDVNRTYQEKDKRGGIFDAVFTRGDQSKLLTSRHDFKEKGLKEISDLIKQELTEGKALGLSHTYANVRIGHVINLWGADFDSDGNLKAIYVTDSDSNASIGMKKYFVGVNSSGKVAISAKEIKEDNIGAQVLGLFTLSTGQDIWNQTN	549	378	368	0				
Ide85 (protein) MANQEIRYSEVTPYHVTSVWTKGVTPPAKFTQGEDVFHAPYVANQGWYDITKTFNGKDDLLCGAATAGNMLHWWFDQNKEKIEAYLKKHPDKQKIMFGDQELLDVRKVINTKGDQTNSELFNYFRDKAFPGLSARRIGVMPDLVLDMFINGYYLNVYKTQTTDVNRTYQEKDRRGGIFDAVFTRGDQSKLLTSRHDFKEKNLKEISDLIKKELTEGKALGLSHTYANVRINHVINLWGADFDSNGNLKAIYVTDSDSNASIGMKKYFVGVNSAGKVAISAKEIKEDNIGAQVLGLFTLSTGQDSWNQTN					1130	615	0	0
